Laboratory results published in publication PMC12440814.
Changes are numbered by the printed parent chain.

Columns and labels:
CtTrl1-LIG WT [1] = target: T1, CtTrl1-LIG WT (Chaetomium thermophilum, UniProt G0S6G2 1-414); experiment: EMSA
T1 sequence: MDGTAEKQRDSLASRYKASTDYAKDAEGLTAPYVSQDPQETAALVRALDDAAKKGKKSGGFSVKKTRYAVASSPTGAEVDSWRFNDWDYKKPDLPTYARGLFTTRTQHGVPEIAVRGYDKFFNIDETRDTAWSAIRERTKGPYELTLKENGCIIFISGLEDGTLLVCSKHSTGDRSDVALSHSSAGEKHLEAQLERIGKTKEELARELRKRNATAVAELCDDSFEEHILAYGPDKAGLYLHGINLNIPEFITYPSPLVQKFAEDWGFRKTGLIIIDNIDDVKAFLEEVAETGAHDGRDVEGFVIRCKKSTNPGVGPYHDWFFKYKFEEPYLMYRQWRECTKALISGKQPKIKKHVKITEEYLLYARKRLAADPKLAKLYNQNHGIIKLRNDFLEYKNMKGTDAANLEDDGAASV

CtTrl1-LIG WT [2] = target: T1, CtTrl1-LIG WT; experiment: EMSA; remark: listed apart in the source
CtTrl1-LIG S171A = target: T2, CtTrl1-LIG S171A (Chaetomium thermophilum, UniProt G0S6G2 1-414, S171A); experiment: EMSA
T2 sequence: T1 sequence with S171A

CtTrl1-LIG H170A = target: T3, CtTrl1-LIG H170A (Chaetomium thermophilum, UniProt G0S6G2 1-414, H170A); experiment: EMSA
T3 sequence: T1 sequence with H170A

CtTrl1-LIG K148N = target: T4, CtTrl1-LIG K148N (Chaetomium thermophilum, UniProt G0S6G2 1-414, K148N); experiment: EMSA
T4 sequence: T1 sequence with K148N

CtTrl1-LIG WT [3] = target: T1, CtTrl1-LIG WT; experiment: X-ray crystallography

B1: ASL-4U-5C (structured_RNA)
RNA: CUCUGGAUUUUGCCAGACUGAAG
modifications: 5'-phosphate and terminal phosphate presumed as in ASL-4U
binding result (CtTrl1-LIG WT [1]): binds

B2: ASL-4U (structured_RNA)
RNA: AUCUGGAUUUUGCCAGACUGAAG
modifications: 5'-phosphate; terminal phosphate at 3' end nucleotide (2'-P/3'-OH)
binding result (CtTrl1-LIG WT [2]): binds | binding result (CtTrl1-LIG S171A): binds | binding result (CtTrl1-LIG H170A): binds | binding result (CtTrl1-LIG K148N): binds

B3: 3'exon-7nt (dsRNA)
RNA 1: AUCUGGA
RNA 2: AUCUGGA
modifications: 5'-phosphate; one strand end 5'-adenylylated (AppRNA) in the crystal
binding result (CtTrl1-LIG WT [3]): binds
